Here are results for two molecules from PMC3585378 (PLoS ONE, 2013).

The target of one test is T1, GST-ubiquitin (UniProt P0CG48 1-76).
T1 construct: also called GST-tagged ubiquitin
The test can be described thus: pull-down. Particulars: both partners purified.

A further test concerns the target His6-ubiquitin (UniProt P0CG48 1-76). Nature of the test: pull-down. Particulars: both partners purified.

B1: His6-OspG (natural protein)
chain: MKITSTIIQTPFPFENNNSHAGIVTEPILGKLIGQGSTAEIFEDVNDSSALYKKYDLIGNQYNEILEMAWQESELFNAFYGDEASVVIQYGGDVYLRMLRVPGTPLSDIDTADIPDNIESLYLQLICKLNELSIIHYDLNTGNMLYDKESESLFPIDFRNIYAEYYAATKKDKEIIDRRLQMRTNDFYSLLNRKYL
notes: source: E. coli BL21 (DE3), purified (Ni-NTA)
For B1, the binding result in the test with GST-ubiquitin is “binds”.

B2: GST-tagged OspG protein (GST-OspG) (natural protein)
chain: B1 chain
notes: source: E. coli BL21 (DE3), purified (glutathione-Sepharose)
As to B2, the binding result with His6-ubiquitin is listed as “binds”.
